How the values were obtained:
[1] = target: T1, thrombin-catalyzed activation of GDPC (protein C having no Gla domain) (Homo sapiens, UniProt P00734); assay: Same assay with protein C having no Gla domain (GDPC) instead of protein C; format: biochemical; conditions: calcium ion concentrations of 0 to 5 mM
T1 construct: 3 μl of thrombin (manufactured and sold by Sigma Chemical Company, catalog No. T-6759, 20 ng/μl); purchased Sigma Chemical Company T-6759
Protocol: (§1) With respect to the polypeptide solutions (0.4 μg/ml) purified and quantitated in Example 1-(5)-(d), the activity of polypeptides to promote the thrombin-catalyzed activation of protein C is measured according to the method described in Example 1-(3). The CaCl2 concentration of 10×Assay buffer is adjusted so that the activities at calcium ion concentrations of 0 to 5 mM are determined. Also, with respect to protein C having no Gla domain (hereinafter referred to as "GDPC") which is prepared by chymotrypsin treatment according to the method of N. L. Esmon [J. Biol. Chem. Vol. 258, pp. 5548-5553 (1983)]and which is used instead of protein C, the activity measurement is carried out within the same range of calcium concentration.

[2] = target: T2, thrombin-catalyzed activation of protein C (Homo sapiens, UniProt P00734); assay: Activity to promote the activation of protein C (Example 9-(4)); format: biochemical; conditions: peptide solution 10 nM, thrombin 15 nM, protein C 3.2 μM, 37° C., one hour
Protocol: With respect to the polypeptide purified in Example 9-(3), the activity to promote the activation of protein C is measured according to the following method. That is, 10 μl of a peptide solution (10 nM), 10 μl of thrombin (15 nM), 10 μl of protein C (3.2 μM), 10 μl of 10×Assay buffer [0.5M Tris HCl (pH 7.5) containing 1% BSA, 1M NaCl and 20 mM CaCl2 ] and 60 μl of distilled water are mixed together. The mixture is reacted at 37° C. for one hour, and antithrombin III and hepalin are added at final concentrations of 100 nM and lu/ml, respectively, thereby stopping the reaction. To measure the concentration of activated protein C, the concentration of AMC ([…]) liberated from a 200 μM substrate of Boc-Leu-Ser-Thr-Arg-MCA in a buffer containing 0.05M Tris HCl (pH 8.0) and 0.1M CsCl is measured at an excitation wavelength of 380 nm and a measuring wavelength of 440 nm.

[3] = target: T2, thrombin-catalyzed activation of protein C; assay: Assay of the activity to promote the thrombin-catalyzed activation of protein C (Example 1-(3), fluorogenic substrate Boc-Leu-Ser-Thr-Arg-MCA); format: biochemical, bovine; parameters: 3 μl of thrombin (manufactured and sold by Sigma Chemical Company, catalog No. T-6759, 20 ng/μl); purchased Sigma Chemical Company T-6759; conditions: for calcium ion concentration at which the activity is highest: activation of protein C, calcium ion 0 to 5 mM; for activity to promote the thrombin-catalyzed activation of protein C (in words): purified polypeptide from COS-1, calcium ion concentrations of 0 to 5 mM; for amount of activated protein C with reaction time (in words): from D71 strain
Protocol: 5 μl of the supernatant of the culture of COS-1 cells is transformed by each of plasmids pSV2TMD7 and pSV2TMD8, 3 μl of thrombin (manufactured and sold by Sigma Chemical Company, catalog No. T-6759, 20 ng/μl), 5 μl of 10×Assay Buffer containing 1M NaCl, 30 mM CaCl2, 1% calf serum albumin and 0.5M tris-HCl buffer (pH 8.5) and 29.5 μl of distilled water are mixed together and allowed to stand at 37° C. for 5 minutes, followed by the addition of 7.5 μl protein C (derived from bovine, 0.2 μg/μl) to the mixture. The reaction is conducted at 37° C. for 30 minutes, and terminated by adding 6.25 μl of a stop solution (20 mM tris-HCl buffer, pH7.5, containing 100 mM NaCl, 0.3A280 anti-thrombin III and 100 μg/ml heparin).
The activity of activated protein C is measured by first adding 10 μl of Boc-Leu-Ser-Thr-Arg-MCA (manufactured and sold by Peptide Institute, The Foundation (Japan), 5 mg/ml), 5 μl of 5M CsCl and 495 μl of a substrate reaction buffer (50 mM tris-HCl buffer containing 100 mM NaCl (pH 8.5)), next allowing the reaction to proceed at 37° C. for 20 minutes, then terminating the reaction by adding 55 μl of acetic acid, and finally measuring the concentration of liberated AMC ([…]) by means of a spectrofluorometer (model RF-540, manufactured and sold by Shimadzu Corporation, Japan) at an excitation wavelength of 380 nm and an emission wavelength of 440 nm. The obtained fluorescence intensity is compared with the fluorescence intensity of a solution having a known AMC concentration to determine the amount of the liberated AMC. The value obtained by deducting from this amount the amount of AMC in the case where an aqueous solution containing no polypeptide of the present invention is added, represents the activity of the polypeptide to promote the thrombin-catalyzed activation of protein C. The activity to produce 1 nM of activated protein C per ml of reaction mixture and per minute is defined as 1 u (unit).
as §1

[4] = target: T2, thrombin-catalyzed activation of protein C; assay: Activated protein C formation against reaction time with purified polypeptide (Example 4-(6)); format: biochemical; conditions: polypeptide purified from Acremonium chrysogenum strains D71 and M31 (Example 6(4))
Protocol: To 0.02M Tris-HCl buffer (pH 8.5) containing 0.1M NaCl, 0.5 mM CaCl2 and 10 mg/ml BSA are added 50 μg/ml protein C, 5 nM thrombin and 5 nM of each of the purified polypeptides of the present invention, and reacted at 37° C. To each of the reaction mixtures are added 300 μg/ml antithrombin III (manufactured and sold by Sigma Chemical Company, U.S.A.) and 5 mM EDTA to terminate the reaction. Then, the amount of the activated protein C produced by the reaction is determined by the method described in Example 1-(3) in which a synthetic substrate is used.

[5] = target: thrombin-catalyzed conversion of fibrinogen to fibrin (Homo sapiens, UniProt P00734); assay: Anticoagulating activity: clotting time of a fibrinogen solution; format: biochemical; conditions: polypeptide purified from Acremonium chrysogenum (Example 6(4))
Protocol: The activity of each of the polypeptides of the present invention to inhibit the thrombin-catalyzed conversion of fibrinogen to fibrin so as to inhibit blood coagulation, is determined by measuring clotting time using Coagulometer KC-10A (manufactured and sold by Heinrich Amelung A.G., Germany). Illustratively stated, to 0.05M Tris-HCl buffer (pH 7.5) containing 5 mM CaCl2 and 0.1M NaCl is added 3.0 μg of fibrinogen (Fraction I, manufactured and sold by Sigma Chemical Company, U.S.A.). To the resultant mixture is added 0 to 50 nM of each of the purified polypeptides of the present invention. Then, 10 nM thrombin is added to the mixture in such an amount that the total amount of the mixture becomes 0.4 ml, and then the coagulation time of the mixture is measured.

[6] = system: thrombin-catalyzed platelet aggregation; assay: Platelet aggregation-inhibiting activity (Platelet Rich Plasma, HEMA TRACER IV); format: cell-based; conditions: polypeptide purified from Acremonium chrysogenum (Example 6(4))
Protocol: The activity of each of the polypeptides of the present invention to inhibit the thrombin-catalyzed platelet aggregation is evaluated using platelet aggregation measuring apparatus HEMA TRACER IV (manufactured and sold by NIKO Bioscience, Inc., Japan). Measurement is carried out according to the manual attached thereto. When 40 μl of a 20 NIH unit/ml thrombin solution (manufactured and sold by SIGMA Chemical Co., U.S.A., T 6759) is added to 180 μl of a Platelet Rich Plasma (PRP) platelet solution (3×10^5 cells/μl) and incubated, the aggregation of platelets occurs. […] The aggregation of platelets is determined on the basis of the transparency, assuming the transparency of Platelet Poor Plasma (PPP) solution as 100%. The ratio of platelet aggregation is plotted against the incubation time (0 min: the time when thrombin or a mixture of thrombin and one of the polypeptides is added to the PRP solution). It is confirmed that the platelet aggregation is inhibited when one of the polypeptides of the present invention is added.

Row | Substance | activity in the activation of GDPC (in words) [1] | production of activated protein C [2] [pmol] | calcium ion concentration at which the activity is highest [3] [mM] | activity to promote the thrombin-catalyzed activation of protein C (in words) [3] | amount of activated protein C with reaction time (in words) [4] | clotting time of fibrinogen solution against amount of polypeptide (in words) [5] | thrombin-catalyzed platelet aggregation (in words) [6] | Specific activity ([3]; COS-1 culture supernatant, activity per amount of polypeptide by ELISA) [u/mg] | specific activity (in words) ([3]; deletion mutants expressed in COS-1 cells) | amount of activated protein C with reaction time (in words) ([3]; purified by DIP-thrombin column (Example 8(2))) | amount of activated protein C with reaction time (in words) ([3]; purified by anti-TM monoclonal antibody column 1 (Example 8(4))) | amount of activated protein C with reaction time (in words) ([3]; purified by anti-TM monoclonal antibody column 2 (Example 8(5))) | Activity ([3]; supernatant of culture of COS-1 cells transformed with the plasmid, 1 u = 1 nM activated protein C per ml per minute) [u/ml]
1 | D123Asp: polypeptide of amino acid residues up to the 516th position of human thrombomodulin (FIG. 55), expressed from pSV2TMD1 | low activity | 18.6 | 0.4 to 0.5 | high activity |  |  |  |  |  |  |  |  | 
2 | E456Asp: polypeptide of the 367th to 480th amino acid residues of human thrombomodulin, from cells transfected with pSV2TMD7 or Acremonium strain D71 | low activity | 18.3 | 0.4 to 0.5 | high activity | increased with the lapse of reaction time | the longer the clotting time | inhibited | 5809 | same level of specific activity as that of the 115-amino acid polypeptide | increased with the lapse of the reaction time | increased with the lapse of reaction time | increased with lapse of reaction time | 1210

From patent US5574007A, “Polypeptide capable of interacting with thrombin” (Asahi Kasei Kogyo Kabushiki Kaisha, priority 1990, dated 1996)
